This is an account of results in US20170306032A1 (RESEARCH CORPORATION TECHNOLOGIES, published 2017).

Assay [1] has as its target T1, FcRn.
T1 construct: also called neonatal receptor FcRn
The assay is described as follows: SPR. For orientation: Surface plasmon resonance follows binding to a sensor surface in real time, without labels.

Assay [2] has as its target T2, human EphA2 receptor expressed on cells (HEK293-EphA2, CHO-EphA2, PC-3) (human, UniProt P29317 24-976).
T2 construct: whole, on cells; also called EphA2 transfected cells; HEK293-EphA2 overexpressing cells
As to the kind of experiment: FACS titration on human EphA2 transfected CHO cells, anti-His-FITC detection [upper panel].

Assay [3] addresses T2, human EphA2 receptor expressed on cells …. As to the kind of experiment: immunofluorescence on PC-3 cells expressing endogenous EphA2 receptor, 4° C. for 30 minutes.
For assay [4], the target named is T3, human EphA2 recombinant protein (purified human EphA2 extracellular domain) (human, UniProt P29317 24-537).
T3 construct: extracellular domain; Biotinylated for the Octet assay; also called hEphA2; huEphA2
T3 sequence (P29317 24-537): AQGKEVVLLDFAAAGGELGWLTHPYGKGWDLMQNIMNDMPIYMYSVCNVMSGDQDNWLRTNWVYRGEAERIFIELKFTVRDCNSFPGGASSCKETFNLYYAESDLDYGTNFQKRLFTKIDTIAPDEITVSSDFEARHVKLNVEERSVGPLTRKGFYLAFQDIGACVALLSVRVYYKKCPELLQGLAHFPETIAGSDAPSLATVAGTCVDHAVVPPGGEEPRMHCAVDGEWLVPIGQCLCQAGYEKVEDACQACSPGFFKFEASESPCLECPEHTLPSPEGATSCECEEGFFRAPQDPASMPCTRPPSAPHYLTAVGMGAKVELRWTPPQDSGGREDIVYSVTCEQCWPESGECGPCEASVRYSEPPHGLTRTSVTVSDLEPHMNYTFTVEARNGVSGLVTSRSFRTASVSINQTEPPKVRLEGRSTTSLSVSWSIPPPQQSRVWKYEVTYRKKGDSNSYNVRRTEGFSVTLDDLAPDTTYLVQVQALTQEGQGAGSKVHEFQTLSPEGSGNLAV
The assay is described as follows: phage ELISA on coated hEphA2, anti-M13-HRP, developed 30 min. (In general: ELISA stands for enzyme-linked immunosorbent assay.)

The target of assay [5] is BSA (bovine serum albumin, control) (bovine, UniProt P02769 25-607). As to the kind of experiment: phage ELISA on coated BSA, anti-M13-HRP.
Chain of BSA (bovine serum albumin, control) (P02769 25-607 limits assumed): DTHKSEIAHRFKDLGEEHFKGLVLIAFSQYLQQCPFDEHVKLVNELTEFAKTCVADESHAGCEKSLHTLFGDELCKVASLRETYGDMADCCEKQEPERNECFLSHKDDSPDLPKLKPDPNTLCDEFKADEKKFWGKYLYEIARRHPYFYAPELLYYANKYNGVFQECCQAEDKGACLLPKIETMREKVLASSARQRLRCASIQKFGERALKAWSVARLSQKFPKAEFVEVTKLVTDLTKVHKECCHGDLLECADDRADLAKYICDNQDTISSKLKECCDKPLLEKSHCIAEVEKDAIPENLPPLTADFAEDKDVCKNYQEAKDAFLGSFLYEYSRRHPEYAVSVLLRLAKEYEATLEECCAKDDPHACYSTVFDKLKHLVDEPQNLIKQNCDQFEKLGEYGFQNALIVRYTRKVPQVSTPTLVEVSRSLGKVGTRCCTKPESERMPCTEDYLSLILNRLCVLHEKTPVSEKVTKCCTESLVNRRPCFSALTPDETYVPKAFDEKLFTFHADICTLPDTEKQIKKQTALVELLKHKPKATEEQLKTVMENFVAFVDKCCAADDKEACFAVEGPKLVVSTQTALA
Assay [6] addresses T4, mouse EphA2 recombinant protein (Fc chimera, R&D Systems, cat#639-A2) (mouse, UniProt Q03145 26-535).
T4 construct: Biotinylated for the Octet assay; also called mEphA2-Fc; mEphA2; Fc part of the bought chimera not given
As to the kind of experiment: SPR, Biacore 3000, on mEphA2.

In assay [7] the target is T2, human EphA2 receptor expressed on cells …. The assay is described as follows: phage ELISA on fixed HEK293 cells with doxycycline-induced EphA2 (NO DOX, 100, 50, 25 ng/ml), anti-M13-HRP.
The target in assay [8] is T4, mouse EphA2 recombinant protein (Fc …). As to the kind of experiment: BLI, Octet Red, biotinylated mEphA2 on streptavidin sensors, steady state fit (column head prints EC50, title KD). In general terms: In BLI a coated tip is dipped into the sample, and binding shifts an interference pattern.
The target in assay [9] is T3, human EphA2 recombinant protein …. As to the kind of experiment: SPR, Biacore 3000, immobilized huEphA2 extracellular domain, KDequilibrium.
Assay [10] shares this target. The assay is described as follows: end-point titration ELISA on huEphA2.
For assay [11], the target named is T2, human EphA2 receptor expressed on cells …. The assay is described as follows: FACS on CHO cells transfected with human EphA2.
Assay [12] concerns the target T3, human EphA2 recombinant protein …. The assay is described as follows: BLI, Octet Red, biotinylated huEphA2 on streptavidin sensors, steady state fit (column head prints EC50, title KD).
The target is the same in assay [13]. As to the kind of experiment: SPR, Biacore 3000, immobilized huEphA2 extracellular domain, KDkinetic.
Assay [14] has as its target T4, mouse EphA2 recombinant protein (Fc …). The assay is described as follows: end-point titration ELISA on mEphA2.
Assay [15] concerns the target T3, human EphA2 recombinant protein …. As to the kind of experiment: SPR, Biacore 3000, immobilized huEphA2 extracellular domain.

T4 sequence (Q03145 26-535, change not shown): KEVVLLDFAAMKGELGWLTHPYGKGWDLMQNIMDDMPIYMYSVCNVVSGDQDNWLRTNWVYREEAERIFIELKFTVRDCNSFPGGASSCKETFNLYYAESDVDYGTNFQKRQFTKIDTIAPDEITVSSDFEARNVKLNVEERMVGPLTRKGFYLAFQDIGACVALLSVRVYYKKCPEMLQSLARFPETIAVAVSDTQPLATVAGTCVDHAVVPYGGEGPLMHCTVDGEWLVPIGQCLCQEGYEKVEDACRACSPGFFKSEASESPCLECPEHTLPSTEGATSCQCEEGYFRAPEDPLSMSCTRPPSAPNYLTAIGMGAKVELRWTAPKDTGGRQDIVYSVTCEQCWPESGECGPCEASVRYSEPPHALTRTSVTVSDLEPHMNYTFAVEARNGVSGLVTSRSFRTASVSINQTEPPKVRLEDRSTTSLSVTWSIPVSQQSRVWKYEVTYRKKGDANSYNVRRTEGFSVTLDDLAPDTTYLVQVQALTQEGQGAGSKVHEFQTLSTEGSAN
T2 sequence (P29317 24-976): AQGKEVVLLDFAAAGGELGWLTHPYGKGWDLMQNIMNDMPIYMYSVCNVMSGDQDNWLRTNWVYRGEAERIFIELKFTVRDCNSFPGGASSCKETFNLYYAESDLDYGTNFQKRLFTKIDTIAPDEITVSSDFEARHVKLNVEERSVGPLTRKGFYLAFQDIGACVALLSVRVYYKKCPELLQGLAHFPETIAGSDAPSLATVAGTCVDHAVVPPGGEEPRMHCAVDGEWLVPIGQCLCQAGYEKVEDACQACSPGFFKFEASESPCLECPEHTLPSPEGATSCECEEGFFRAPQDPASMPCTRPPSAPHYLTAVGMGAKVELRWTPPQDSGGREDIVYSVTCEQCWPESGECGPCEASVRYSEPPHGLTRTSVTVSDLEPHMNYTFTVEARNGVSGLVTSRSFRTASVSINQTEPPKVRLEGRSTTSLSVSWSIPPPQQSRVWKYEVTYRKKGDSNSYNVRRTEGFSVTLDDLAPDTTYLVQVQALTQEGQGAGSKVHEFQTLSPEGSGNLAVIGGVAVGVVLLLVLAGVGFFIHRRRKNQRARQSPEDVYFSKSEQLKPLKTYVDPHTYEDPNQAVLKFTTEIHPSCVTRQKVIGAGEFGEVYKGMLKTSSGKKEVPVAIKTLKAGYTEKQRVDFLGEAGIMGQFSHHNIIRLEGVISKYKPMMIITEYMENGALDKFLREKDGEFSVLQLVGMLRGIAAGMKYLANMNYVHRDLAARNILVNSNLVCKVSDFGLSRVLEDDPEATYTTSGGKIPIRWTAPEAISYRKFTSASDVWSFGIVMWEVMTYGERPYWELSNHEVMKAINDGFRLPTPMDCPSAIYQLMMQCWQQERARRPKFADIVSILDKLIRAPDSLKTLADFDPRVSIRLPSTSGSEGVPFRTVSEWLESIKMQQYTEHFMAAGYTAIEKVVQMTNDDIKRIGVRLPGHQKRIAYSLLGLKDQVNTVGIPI
T1 sequence (P55899 24-297, chain 1 of 2): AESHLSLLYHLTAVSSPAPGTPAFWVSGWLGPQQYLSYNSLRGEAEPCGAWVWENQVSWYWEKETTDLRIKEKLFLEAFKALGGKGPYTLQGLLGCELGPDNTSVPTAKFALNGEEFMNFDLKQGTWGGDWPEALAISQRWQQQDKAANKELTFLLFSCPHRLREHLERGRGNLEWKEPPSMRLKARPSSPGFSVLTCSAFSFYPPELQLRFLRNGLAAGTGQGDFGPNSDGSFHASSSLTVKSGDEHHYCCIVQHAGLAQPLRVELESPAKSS
T1 sequence (P61769 21-119, chain 2 of 2, further chain): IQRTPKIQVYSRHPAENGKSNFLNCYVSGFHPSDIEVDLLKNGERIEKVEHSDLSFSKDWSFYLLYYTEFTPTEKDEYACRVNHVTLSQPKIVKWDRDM

B1: wild type CH2D (wild type human IgG CH2 domain) (other)
chain: APELLGGPSVFLFPPKPKDTLMISRTPEVTCVVVDVSHEDPEVKFNWYVDGVEVHNAKTKPREEQYNSTYRVVSVLTVLHQDWLNGKEYKCKVSNKALPAPIEKTISKAK
notes: also called CH2wt
In general, Kd refers to the free concentration of one partner at which half of the binding sites on the other are occupied at equilibrium, for simple one-to-one binding. As to B1, in assay [1], the dissociation constant Kd was 1660 nM. For the same molecule, the binding result in assay [2] was “no binding (tested: about 3.6 µM)”.

B2: B11 modified CH2 domain SEQ ID NO: 91 (C terminal cysteine) conjugated with Biotin-dPEG11 (designed binder)
chain: GPSVFLFPPKPKDTLMISRTPEVTCVVVDYRADYLDVKFNWYVNGAEVHHAQTKPRQYDPLYGYRVVSVLTVTHQDWLNGKEYTCKVSNKALPAPIQKTISKDC
modifications: conjugated with Biotin-dPEG11-MAL after reduction with DTT; the residue that carries it is not stated (chain has a C terminal cysteine)
notes: also called B11-dPEG-biotin
Consider B2, for which, in assay [3], the binding result is on record as “binds”.

B3: E10 modified CH2 domain (first generation loop 2 clone, parental clone of the affinity maturation) (designed binder)
chain: GPSVFLFPPKPKDTLMISRTPEVTCVVVDVSHEDPEVKFNWYVDGAEVHHAQTKPRQYDPLYGYRVVSVLTVLHQDWLNGKEYKCKVSNKALPAPIEKTISKAK
notes: purified protein elsewhere; also called E10par
For orientation: koff means the rate constant with which the complex falls apart. By kon is commonly meant a measure of how fast the partners come together. As for B3, the Kd was 3260 nM in assay [1] and 97 nM in assay [6]. The binding result in assay [4] is reported as “binds”; in assay [5], “no binding”; in [7], “binds”. Moreover, in [6], the koff is 0.008 s⁻¹. Moreover, the kon in assay [6] worked out at 79100 M⁻¹ s⁻¹.

B4: G7 modified CH2 domain (affinity matured, loop 1 PHLGVD, loop 2 of E10) (designed binder)
chain: GPSVFLFPPKPKDTLMISRTPEVTCVVVDPHLGVDEVKFNWYVDGAEVHHAQTKPRQYDPLYGYRVVSVLTVLHQDWLNGKEYKCKVSNKALPAPIEKTISKAK
In general, EC50 refers to the midpoint of the concentration-response curve. For the molecule B4, the dissociation constant (Kd) came to 21 nM in [8], 22 nM in [9], 18 nM in assay [12] and 21 nM in assay [13]. In addition, the EC50 in assay [10] is 8.06 nM; in assay [11], 333 nM; in [14], 3.18 nM. The koff in assay [15] was 0.0375 s⁻¹. For the same molecule, in [15], the kon was 1.8e+06 M⁻¹ s⁻¹.

B5: H3 (first generation loop 2 clone, loop 2 AYYALGG) (designed binder)
chain: GPSVFLFPPKPKDTLMISRTPEVTCVVVDVSHEDPEVKFNWYVDGAEVHHAQTKPRAYYALGGYRVVSVLTVLHQDWLNGKEYKCKVSNKALPAPIEKTISKAK
notes: From library #15 (Glu293 to Thr299 randomised); A9 is kept apart as m12; also called H3par
In the case of B5, in [6], the dissociation constant Kd turned out to be 383 nM, the off-rate constant (koff) is 0.014 s⁻¹ and the kon was 36400 M⁻¹ s⁻¹.

B6: D2 modified CH2 domain (affinity matured, loop 1 YEAAAL, loop 2 of E10) (designed binder)
chain: GPSVFLFPPKPKDTLMISRTPEVTCVVVDYEAAALEVKFNWYVDGAEVHHAQTKPRQYDPLYGYRVVSVLTVLHQDWLNGKEYKCKVSNKALPAPIEKTISKAK
notes: Expressed in Shuffle cells, purified on HisTrap
In the case of B6, the dissociation constant Kd in assay [8] worked out at 18 nM; in assay [12], 20 nM. Also, the EC50 is 2.55 nM in assay [10], 1310 nM in assay [11] and 1.97 nM in assay [14].

B7: H6 modified CH2 domain (first generation loop 2 clone) (designed binder)
chain: GPSVFLFPPKPKDTLMISRTPEVTCVVVDVSHEDPEVKFNWYVDGAEVHHAQTKPRRVDPLGGYRVVSVLTVLHQDWLNGKEYKCKVSNKALPAPIEKTISKAK
notes: purified on a Nickel column from E. coli periplasm for protein ELISA and SPR
Consider B7, for which, in assay [4], the binding result was “binds”. Moreover, in assay [5], the binding result is recorded as “no binding”. For the same molecule, in [6], the equilibrium dissociation constant (Kd) was 873 nM, the koff worked out at 0.008 s⁻¹ and the kon was found to be 9610 M⁻¹ s⁻¹. Further, the binding result in assay [7] is on record as “binds”.

B8: B11 modified CH2 domain (affinity matured, loop 1 YRADYL, loop 2 of E10) (designed binder)
chain: GPSVFLFPPKPKDTLMISRTPEVTCVVVDYRADYLEVKFNWYVDGAEVHHAQTKPRQYDPLYGYRVVSVLTVLHQDWLNGKEYKCKVSNKALPAPIEKTISKAK
For the molecule B8, the equilibrium dissociation constant (Kd) came out at 5.5 nM in [8], 13.9 nM in assay [9], 3.1 nM in assay [12] and 13 nM in assay [13]. The half-maximal effective concentration (EC50) in [10] turned out to be 4.43 nM; in assay [11], 403 nM; in assay [14], 9.89 nM. For the same molecule, the off-rate constant (koff) in assay [15] stood at 0.0158 s⁻¹. Further, in assay [15], the kon amounted to 1.21e+06 M⁻¹ s⁻¹.

B9: B11 modified CH2 domain SEQ ID NO: 89 (C terminal cysteine and N terminal hinge sequence) conjugated with Biotin-dPEG11 (designed binder)
chain: GSCDKTHTAPEKKGGPSVFLFPPKPKDTLMISRTPEVTCVVVDYRADYLDVKFNWYVNGAEVHHAQTKPRQYDPLYGYRVVSVLTVTHQDWLNGKEYTCKVSNKALPAPIQKTISKDC
modifications: conjugated with Biotin-dPEG11-MAL after reduction with DTT; the residue that carries it is not stated (chain has a C terminal cysteine)
notes: also called B11-dPEG-biotin
B9: the binding result in assay [3] is recorded as “binds”.

B10: B11 modified CH2 domain SEQ ID NO: 90 (N terminal hinge sequence) conjugated with Biotin-dPEG11 (designed binder)
chain: GSCDKTHTAPEKKGGPSVFLFPPKPKDTLMISRTPEVTCVVVDYRADYLDVKFNWYVNGAEVHHAQTKPRQYDPLYGYRVVSVLTVTHQDWLNGKEYTCKVSNKALPAPIQKTISKDK
modifications: conjugated with Biotin-dPEG11-MAL after reduction with DTT; the residue that carries it is not stated
notes: also called B11-dPEG-biotin
B10: the binding result in assay [3] was “binds”.
